Experimental data: paper PMC9865144, “Crystal Structure of the SH3 Domain of ASAP1 in Complex with the Proline Rich Motif (PRM) of MICAL1 Reveals a Unique SH3/PRM Interaction Mode” (International Journal of Molecular Sciences, 2023)
Substitutions are numbered along the chain they refer to. Names may count otherwise. Read-outs that look alike come from different tables or passages of the source.

Assays:
APC PRM (Homo sapiens) = APC PRM (Homo sapiens) (UniProt P25054); conditions: cited from earlier work
MICAL1-PRM, Q8TDZ2 = target: T1, MICAL1-PRM, Q8TDZ2; experiment: ITC; conditions: chain shown with the change
T1 chain: EPPPKPPRSCSALAR

FYB1 = target: T2, FYB1 (Homo sapiens (Human), UniProt O15117); experiment: ITC, Trx fusions
T2 chain: TLGPPPPKPNRPPNV

MICAL1 = target: T3, MICAL1 (Homo sapiens (Human), UniProt Q8TDZ2); experiment: ITC, Trx fusions
T3 chain: EPPPKPPRSCSALAR

FAK1 = target: T4, FAK1 (Homo sapiens (Human), UniProt Q05397); experiment: ITC, Trx fusions
T4 chain: EAPPKPSRPGYPSPR

[1] = target: T5, GRAF2-SH3 (residue 728–786) (human, UniProt A1A4S6 728-786); experiment: ITC
T5 chain: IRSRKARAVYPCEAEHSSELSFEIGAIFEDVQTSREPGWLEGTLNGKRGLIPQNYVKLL

[2] = target: T6, ASAP1-SH3 (residue 1087–1147) (mouse, UniProt Q9QWY8 1087-1147); experiment: ITC
T6 chain: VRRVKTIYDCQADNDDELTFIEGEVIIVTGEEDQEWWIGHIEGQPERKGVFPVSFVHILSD

[3] = target: T7, SKAP1-SH3 (residue 294–355) (human, UniProt Q86WV1 294-355); experiment: ITC
T7 chain: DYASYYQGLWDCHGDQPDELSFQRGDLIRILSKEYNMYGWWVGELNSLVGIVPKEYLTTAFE

[4] = target: T6, ASAP1-SH3 (residue 1087–1147); experiment: ITC
[5] = target: T8, ASAP1-SH3 (residue 1087–1147), Q9QWY8; experiment: ITC; conditions: chain shown with the change
T8 chain: T6 chain

[6] = target: T9, SKAP1-SH3 (residue 294–355) (human, UniProt Q86WV1 294-355); experiment: ITC; PEAQ-ITC; 400 μM in the syringe, 40 μM in the cell; 50 mM Tris pH 7.5, 100 mM NaCl, 1 mM DTT, 1 mM EDTA; one-site binding model; conditions: both partners purified
T9 construct: SKAP1 (Src kinase associated phosphoprotein 1), human, SH3 domain, residue 294-355; also called SH3^AGS of SKAP1; source: E. coli BL21(DE3), purified (Ni-NTA, Superdex-200 gel filtration)
T9 sequence (looked up): T7 chain

[7] = target: T10, ASAP1-SH3 (residue 1087–1147) (mouse, UniProt Q9QWY8 1087-1147); experiment: as above; conditions: both partners purified
T10 construct: ASAP1, mouse, SH3 domain, residue 1087-1147; The Trx-His6 tag is followed by a 3C protease cleavage site; The limits are stated for the crystallisation; also called SH3 domain of ASAP1; source: E. coli BL21(DE3), purified (Ni-NTA, Superdex-200 gel filtration)
T10 sequence (looked up): T6 chain

[8] = target: T11, GRAF2-SH3 (residue 728–786) (human, UniProt A1A4S6 728-786); experiment: as above; conditions: both partners purified
T11 construct: GRAF2 (GTPase Regulator associated with focal adhesion kinase 2), human, SH3 domain, residue 728-786; also called SH3^AGS of GRAF2; source: E. coli BL21(DE3), purified (Ni-NTA, Superdex-200 gel filtration)
T11 sequence (looked up): T5 chain

[9] = target: ASAP1-SH3 (residue 1087–1147) (mouse) (UniProt Q9QWY8); experiment: as above

**Q.** With ASAP1 SH3 (from UniProt Q9ULH1) as the molecule, how does the Kd (APC PRM (Homo sapiens)) read?
**A.** Its Kd is 24 µM.

B1: ASAP1-SH3 (residue 1087–1147), Q9QWY8 D1099K (protein)
chain: T6 chain with D13K
**Q.** Which Kd (MICAL1-PRM, Q8TDZ2) does the source give for B1 here?
**A.** The Kd was 109 µM.

B2: ASAP1_SH3 (protein)
chain: T6 chain
**Q.** For B2, which Kd (FYB1) is on record?
**A.** The Kd was 7.59 µM.

**Q.** And the Kd (MICAL1)?
**A.** Its Kd is 0.82 µM.

**Q.** What about the Kd (FAK1) of the same molecule?
**A.** Its Kd is 1.97 µM.

B3: ASAP1-SH3 (residue 1087–1147), Q9QWY8 C1096F (protein)
chain: T6 chain with C10F
**Q.** For B3, which Kd (MICAL1-PRM, Q8TDZ2) is on record?
**A.** Its Kd is 15.7 µM.

B4: GRAF2_SH3 (protein)
chain: T5 chain
**Q.** Which Kd (FYB1) does the source give for B4 here?
**A.** The Kd was 3.14 µM.

**Q.** What about the Kd (MICAL1) of the same molecule?
**A.** Its Kd is 1.33 µM.

**Q.** And the Kd (FAK1)?
**A.** Its Kd is 6.06 µM.

B5: FYB1-PRM (residue 362–376) (peptide)
chain: RPPNVDLTKFHKTSS
**Q.** For B5, which Kd [1] is on record?
**A.** The Kd was 3.14 µM.

**Q.** What about the Kd [2] of the same molecule?
**A.** The Kd was 7.59 µM.

**Q.** What about the Kd [3] of the same molecule?
**A.** Its Kd is 0.29 µM.

B6: MICAL1-loop3 (domain or fragment)
chain: AEGSDRGPESPELPTPSENSMPPGLSTPTASQEGAGPVPDPSQPTRRQIRLSSPERQRLSSLNLTPDPEMEPPPKPPRSCSALARHALESSFVGWGLPVQSPQALVAMEKEEKESPFSSEEEEEDVPLDSDVEQALQTFAKTSGTMNNYPTWRRTLLRRA
**Q.** For B6, which Kd [4] is on record?
**A.** The Kd was 1.1 µM.

B7: MICAL1-PRM, Q8TDZ2 K832R (peptide)
chain: EPPPRPPRSCSALAR
**Q.** For B7, which Kd [5] is on record?
**A.** The Kd was 0.35 µM.

B8: SKAP1_SH3 (protein)
chain: T7 chain
**Q.** What does the source list for B8?
**A.** Kd (FYB1): 0.29 µM; Kd (MICAL1): 5.99 µM; Kd (FAK1): 7.08 µM

B9: FAK1-PRM (residue 710–724) (peptide, UniProt Q05397 710-724, looked up)
chain: EAPPKPSRPGYPSPR
notes: FAK1, human, proline rich motif, residue 710-724; also called PRM^Px+P from FAK1; source: E. coli BL21(DE3), purified (Ni-NTA, Superdex-200 gel filtration)
**Q.** Does B9 bind [6]?
**A.** Result: binds

**Q.** Does B9 bind [7]?
**A.** Result: binds

**Q.** Does B9 bind [8]?
**A.** Result: binds

B10: MICAL1-PRM (peptide)
chain: EPPPKPPRSCSALAR
**Q.** Which results are given for B10?
**A.** Kd [4]: 0.8 µM; Kd [9]: 1 µM

B11: MICAL1-PRM, Q8TDZ2 K832P (peptide)
chain: EPPPPPPRSCSALAR
**Q.** Which Kd [5] does the source give for B11 here?
**A.** The Kd was 17 µM.
